± gives the uncertainty stated by the source.
Experiment: self-splicing fitness, log relative to wild type (ln ratio); higher = more splicing; Tetrahymena group I intron in knt gene, E. coli kanamycin selection, DiMSum; sequences stand for … in CUCUCU…GGAGGGAAAAGUUAUCAGGCAUGCACCUGGUAGCUAGUCUUUAAACCAAUAGAUUGCAUCGGUUUAAAAGGCAAGACCGUCAAAUUGCGGGAAAGGGGUCAACAGCCGUUCAGUACCAAGUCUCAGGGGAAACUUUGAGAUGGCCUUGCAAAGGGUAUGGUAAUAAGCUGACGGACAUGGUCCUAACCACGCAGCCAAGUCCUAAGUCAACAGAUCUUCUGUUGAUAUGGAUGCAGUUCACAGACUAAAUGUCGGUCGGGGAAGAUGUAUUCUUCUCAUAAGAUAUAGUCGGACCUCUCCUUAAUGGGAGCUAGCGGAUGAAGUGAUGCAACACUGGAGCCGCUGGGAACUAAUUUGUAUGCGAAAGUAUAUUGAUUAGUUUUGGAGUACUCGUGGUCG
Summary of the method: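 Six replicate transformations of E. coli BL21(DE3) with a pET-22b(+) library were grown overnight at 37°C or 30°C. The library randomised all eight P1ex-region intron nucleotides, the intron lying in the knt kanamycin-resistance gene, and plates were LB agar with or without 25 μg/mL kanamycin plus 100 μg/mL carbenicillin, 50 μM IPTG and 0.2% rhamnose. Pooled colonies were amplicon-sequenced on an Illumina HiSeq 2500, and fitness is the DiMSum error-weighted combination of wild-type-normalised replicate fold changes, kanamycin versus none.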

Sequence: UGAAAGCAAUAUUACGCGCA
- self-splicing fitness (ln) (30 °C): -0.0804 ± 0.12
- self-splicing fitness (ln) (37 °C): 0.142 ± 0.15

Sequence: AUGGAGCAAUAUUACGCUGU
- self-splicing fitness (ln) (30 °C): -2.13 ± 0.21
- self-splicing fitness (ln) (37 °C): -1.37 ± 0.44

Sequence: GGGGAGCAAUAUUACGACGA
- self-splicing fitness (ln) (30 °C): -2.56 ± 0.4
- self-splicing fitness (ln) (37 °C): -1.34 ± 0.28

Sequence: AUGGAGCAAUAUUACGGUGG
- self-splicing fitness (ln) (30 °C): -4.09 ± 0.3
- self-splicing fitness (ln) (37 °C): -2.17 ± 0.27

Sequence: GUUCAGCAAUAUUACGGGUG
- self-splicing fitness (ln) (30 °C): -1.49 ± 0.09
- self-splicing fitness (ln) (37 °C): -0.763 ± 0.089

Sequence: UAUCAGCAAUAUUACGCUAA
- self-splicing fitness (ln) (30 °C): -0.647 ± 0.084
- self-splicing fitness (ln) (37 °C): 0.529 ± 0.099

Sequence: UUAAAGCAAUAUUACGUCCC
- self-splicing fitness (ln) (30 °C): -1.51 ± 0.11
- self-splicing fitness (ln) (37 °C): -0.906 ± 0.14

Sequence: CGGGAGCAAUAUUACGUAGG
- self-splicing fitness (ln) (30 °C): -1.91 ± 0.099
- self-splicing fitness (ln) (37 °C): -1.6 ± 0.17

Sequence: UCCAAGCAAUAUUACGUAAA
- self-splicing fitness (ln) (30 °C): -1.12 ± 0.089
- self-splicing fitness (ln) (37 °C): -0.00199 ± 0.11

Sequence: AUAGAGCAAUAUUACGCUAG
- self-splicing fitness (ln) (30 °C): -1.01 ± 0.15
- self-splicing fitness (ln) (37 °C): -0.475 ± 0.15

Sequence: CGUUAGCAAUAUUACGAAAU
- self-splicing fitness (ln) (30 °C): -3.82 ± 0.35
- self-splicing fitness (ln) (37 °C): -2.2 ± 0.28

Sequence: UCGCAGCAAUAUUACGGUUC
- self-splicing fitness (ln) (30 °C): -3.65 ± 0.43
- self-splicing fitness (ln) (37 °C): -1.66 ± 0.3

Sequence: CUAUAGCAAUAUUACGUGAA
- self-splicing fitness (ln) (30 °C): -4.01 ± 0.19
- self-splicing fitness (ln) (37 °C): -2.51 ± 0.21

Sequence: UAUGAGCAAUAUUACGCCAA
- self-splicing fitness (ln) (37 °C): -2.51 ± 0.37

Sequence: GCUUAGCAAUAUUACGCACU
- self-splicing fitness (ln) (30 °C): -0.857 ± 0.11
- self-splicing fitness (ln) (37 °C): 0.197 ± 0.12

Sequence: UUGUAGCAAUAUUACGAAUA
- self-splicing fitness (ln) (30 °C): -1.74 ± 0.15
- self-splicing fitness (ln) (37 °C): -1.64 ± 0.14

Sequence: ACAUAGCAAUAUUACGUUCA
- self-splicing fitness (ln) (30 °C): -1.39 ± 0.095
- self-splicing fitness (ln) (37 °C): -0.808 ± 0.13

Sequence: UCGUAGCAAUAUUACGUCAU
- self-splicing fitness (ln) (30 °C): -3.23 ± 0.35
- self-splicing fitness (ln) (37 °C): -2.17 ± 0.33

Sequence: CAGUAGCAAUAUUACGAUAU
- self-splicing fitness (ln) (30 °C): -2.7 ± 0.2
- self-splicing fitness (ln) (37 °C): -1.88 ± 0.21

Sequence: UCUCAGCAAUAUUACGAUGA
- self-splicing fitness (ln) (30 °C): -1.01 ± 0.12
- self-splicing fitness (ln) (37 °C): -0.477 ± 0.11

Sequence: UCUGAGCAAUAUUACGCGGA
- self-splicing fitness (ln) (30 °C): -3.6 ± 0.27
- self-splicing fitness (ln) (37 °C): -2.66 ± 0.21

Sequence: UGGUAGCAAUAUUACGGUAU
- self-splicing fitness (ln) (30 °C): -3.64 ± 0.32
- self-splicing fitness (ln) (37 °C): -1.87 ± 0.4

Sequence: GGGGAGCAAUAUUACGCGGG
- self-splicing fitness (ln) (30 °C): -2.7 ± 0.31
- self-splicing fitness (ln) (37 °C): -1.72 ± 0.39

Sequence: GGUCAGCAAUAUUACGCAAA
- self-splicing fitness (ln) (30 °C): -1.16 ± 0.17
- self-splicing fitness (ln) (37 °C): -0.412 ± 0.18

Sequence: UCGCAGCAAUAUUACGCCCG
- self-splicing fitness (ln) (30 °C): -1.51 ± 0.35

Sequence: GGACAGCAAUAUUACGGUCC
- self-splicing fitness (ln) (30 °C): -3.67 ± 0.26
- self-splicing fitness (ln) (37 °C): -2.28 ± 0.23

Sequence: CCUGAGCAAUAUUACGUCCU
- self-splicing fitness (ln) (30 °C): -4.5 ± 0.39

Sequence: CCUAAGCAAUAUUACGGUGU
- self-splicing fitness (ln) (30 °C): -4.62 ± 0.23
- self-splicing fitness (ln) (37 °C): -1.89 ± 0.16

Sequence: UACCAGCAAUAUUACGCCCG
- self-splicing fitness (ln) (30 °C): -0.0448 ± 0.11
- self-splicing fitness (ln) (37 °C): -0.0962 ± 0.14

Sequence: UUGAAGCAAUAUUACGGCUG
- self-splicing fitness (ln) (30 °C): 0.342 ± 0.12
- self-splicing fitness (ln) (37 °C): 0.572 ± 0.12

Sequence: GAUCAGCAAUAUUACGAAGA
- self-splicing fitness (ln) (30 °C): -0.925 ± 0.11
- self-splicing fitness (ln) (37 °C): -0.0626 ± 0.11

Sequence: CGGCAGCAAUAUUACGAAUA
- self-splicing fitness (ln) (37 °C): -2.07 ± 0.27

Sequence: GUCCAGCAAUAUUACGCCUA
- self-splicing fitness (ln) (30 °C): -0.215 ± 0.095
- self-splicing fitness (ln) (37 °C): -0.244 ± 0.093

Sequence: UUACAGCAAUAUUACGCUUG
- self-splicing fitness (ln) (30 °C): -1.23 ± 0.12
- self-splicing fitness (ln) (37 °C): -0.126 ± 0.13
